The nature of data set [1]: folding stability dG unfold from chymotrypsin proteolysis; higher = more stable. The essentials:
(§1)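 Designed mini-proteins with no cysteine and under 80 residues were kept only if AlphaFold2 dimer inter-PAE was above 15. In a PA-tagged cDNA display construct, they were digested with trypsin and chymotrypsin and then sequenced. K50 was inferred by Bayesian fitting of counts, and unfolding free energy was derived per protease or combined against a sequence-predicted unfolded-state K50 and a shared folded-state K50.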

A short description of data set [2]: folding stability dG unfold from trypsin proteolysis; higher = more stable. The method in brief: as §1
Data set [3] is described as follows: folding stability dG unfold (combined trypsin and chymotrypsin); higher = more stable. The essentials: as §1

± gives the half width of the 95% confidence interval.

On to “SAGITILFNSAEDAENFAEELAEDYPNMNVTIKIHDPEHGEPVEIPVKIPPPPPKPKRDPDNGNKKYEGSAG [r5_870_TrROS]”, for which the figures for the “folding stability dG unfold” value in data set [1], in data set [2] and in data set [3] were 0.506 ± 0.053 kcal/mol, -0.132 ± 0.043 kcal/mol and 0.286 ± 0.13 kcal/mol, respectively.
For the sequence “SAGITLHPDARIILKNPSTGEKIELRSETIRRLIAEILGTDRPEEITAEQINAFALSLGFEEAEFEEPSAGG [r19_67_TrMRF]”, the “folding stability dG unfold” value in data set [1] worked out at 3.312 ± 0.011 kcal/mol; in data set [2] it was 2.29 ± 0.031 kcal/mol; in data set [3], 3.02 ± 0.045 kcal/mol.
As to “SAGKDEKLVKVIVKFNDKTFEVVVKEEDLKKLVESGILKVVGKIPGKNIVAIKVEVPPPKGDPVGPTPVSAG [r5_868_TrMRF]”, the “folding stability dG unfold” value in data set [1] worked out at 2.82 ± 0.14 kcal/mol; in data set [2] it was 2.08 ± 0.24 kcal/mol; in data set [3] it was 2.5 ± 0.17 kcal/mol.
Take “SAGKELVLRVRLYRPVPLEEPRVEEREVVVPRKEDEPIEKVVEELLEPDWVLEVEVFDEGKLIERYYTHSAG [r5_278_TrMRF]”: the results for the “folding stability dG unfold” value in data set [1], in data set [2] and in data set [3] were 1.36 ± 0.22 kcal/mol, 0.721 ± 0.075 kcal/mol and 1.11 ± 0.2 kcal/mol, respectively.
In the case of “SAGKIEITVKPDGTVIIKVTVEVDGKKLELTIEVPPEMTIEEIIEKLKELAEELGVEKVEVEIVPLPPSAGG [r19_31_TrROS_Hall]”, the “folding stability dG unfold” value is 2.9 ± 0.45 kcal/mol in data set [1], 3.9 ± 0.85 kcal/mol in data set [2] and greater than 6 kcal/mol in data set [3].
As for “SAGKIEVKKNYVVIEIKVEGKELKLVIKVKTKEEQEKALELVKKLEEELKKEGLEVEVKVEVFKEGEEVSAG [r5_823_TrROS_Hall]”, the “folding stability dG unfold” value in data set [1] came to 3 ± 0.16 kcal/mol; in data set [2], 2.2 ± 0.15 kcal/mol; in data set [3], 2.8 ± 0.23 kcal/mol.
“SAGKIKIEKENGEVKIEIEVPEEEIEKLKKLLEELKKKGFEVEKVEVKVEKKEDGTVKVTIKVKIKPKPSAG [r5_739_TrROS_Hall]”: the “folding stability dG unfold” value in data set [1] worked out at 3.42 ± 0.41 kcal/mol; in data set [2], 1.91 ± 0.13 kcal/mol; in data set [3], 2.99 ± 0.51 kcal/mol.
As to “SAGKIKKIEVKEVTNENGEKYKKITIEVEKEGKKVEIIVNKNGEKFIKVEKNGKTITLPLDEALELLKKSAG [r5_157_TrROS_Hall]”, the “folding stability dG unfold” value in data set [1] amounted to 1.19 ± 0.13 kcal/mol; in data set [2], 1.23 ± 0.088 kcal/mol; in data set [3], 1.23 ± 0.3 kcal/mol.
Turning to “SAGKIKPGQKIKIKITSIEKLKDGTIKIKAEIELEEKGYKITIEAEIKYDKKTKKLTIKVKIKIEPKPSAGG [r19_342_TrROS_Hall]”, the figures for the “folding stability dG unfold” value in data set [1], in data set [2] and in data set [3] were 4.14 ± 0.18 kcal/mol, 3.26 ± 0.14 kcal/mol and 3.88 ± 0.24 kcal/mol, respectively.
As to “SAGKIKVYYDPKLGRIIEIPLPNGKRIRIYLPKNKLIIVAEDPEGNKAIPIEIETKIGDIIKIIKEIAGSAG [r5_820_TrMRF]”, the “folding stability dG unfold” value in data set [1] turned out to be 3.57 ± 0.11 kcal/mol; in data set [2], 2.9 ± 0.075 kcal/mol; in data set [3], 3.16 ± 0.18 kcal/mol.
The like results for “SAGKINIPPDTDITVKISTEKKPNPPSPEEEEYVGVSYIKVKKNPDGSIEVEEEKFEIISKEEAEKMGLSAG [r5_340_JUSTAS]” were, in that order, 0.177 ± 0.31 kcal/mol, 0.16 ± 0.13 kcal/mol and 0.23 ± 0.28 kcal/mol.
On to “SAGKISSIDISPFKLPDGSYPYLLRVSFPDLGTEVDFIFPAKPSDAINFAKELRKSLPNIPLTFSNISSAGG [r19_317_TrMRF]”, for which the “folding stability dG unfold” value in data set [1] stood at 1.89 ± 0.11 kcal/mol; in data set [2], 1.94 ± 0.05 kcal/mol; in data set [3], 1.87 ± 0.11 kcal/mol.
In the same order, the values of “SAGKKKFITIVIPIEKKEKLKKAVEELKKKFNAKELAVIPNPEKNEIIEVVVKETKDAIIKIVIIAKESAGG [r19_262_TrMRF]” are 1.26 ± 0.029 kcal/mol, 1.68 ± 0.036 kcal/mol and 1.45 ± 0.089 kcal/mol.
With “SAGKKKIKIKLENGETKTLEIKPGETVEITFPNGLKATITKVKDGKIEIKVKEVYVKDKNGKWKKLKDLSAG [r5_417_TrROS_Hall]”, the results for the “folding stability dG unfold” value in data set [1], in data set [2] and in data set [3] were 2.6 ± 0.17 kcal/mol, 1.72 ± 0.066 kcal/mol and 2.29 ± 0.29 kcal/mol, respectively.
Regarding “SAGKKKKIKIKVTIVVPVKTKEDVELMKELAEKFAPELGKETAKKLGLPPEVEEIEVDVNILIVSPEELSAG [r5_436_TrMRF]”, the “folding stability dG unfold” value in data set [1] came out at 1.89 ± 0.13 kcal/mol; in data set [2], 1.48 ± 0.14 kcal/mol; in data set [3], 1.88 ± 0.2 kcal/mol.
“SAGKKKKKKLKITIEITYNKETNTVTIKITVDGKEITVEVKAKSKEEALLNALKELEKKLNIKIKEVKLSAG [r5_251_TrROS_Hall]”: the results for the “folding stability dG unfold” value in data set [1], in data set [2] and in data set [3] were 2.1 ± 0.18 kcal/mol, 1.36 ± 0.13 kcal/mol and 2.27 ± 0.36 kcal/mol, respectively.
With “SAGKKKKKVKKKTVKLTITVKLKPGMTEEEALEKVKELAKALLPPGAKIKEVKFDKETKTVTVEIELTSAGG [r19_81_TrROS_Hall]”, the “folding stability dG unfold” value in data set [1] is 2 ± 0.23 kcal/mol; in data set [2], 2.15 ± 0.054 kcal/mol; in data set [3], 2.25 ± 0.19 kcal/mol.
The like results for “SAGKKKTVTIYLRVETPEEARKLVEELAKKLGAEVTSVEIEKVDGKYYVTVTIKVDGKEIKIVIEFEPSAGG [r19_262_TrROS_Hall]” were, in that order, 3.03 ± 0.031 kcal/mol, 2.04 ± 0.045 kcal/mol and 2.67 ± 0.087 kcal/mol.
Consider “SAGKKVTILIVVPETEEEAKKLAEELAKELAEKTGLEKVEVKVVPKGMTLEQLKELAKENNVDLVILVSAGG [r19_89_TrROS_Hall]”, for which the entries for the “folding stability dG unfold” value in data set [1], in data set [2] and in data set [3] were 3.09 ± 0.15 kcal/mol, 3.24 ± 0.21 kcal/mol and 3.17 ± 0.24 kcal/mol, respectively.
In the case of “SAGKKYKVKKKITLTLEDGSKITIEIVENEDGTVEIKITDSNGKTRTITIPKEKLENMSLEELLKLLKSAGG [r19_47_TrROS_Hall]”, the “folding stability dG unfold” value was found to be 1.73 ± 0.13 kcal/mol in data set [1], 1.76 ± 0.1 kcal/mol in data set [2] and 1.92 ± 0.22 kcal/mol in data set [3].
Turning to “SAGKLVLKPGETVEIGDMTIHFHPDGRVSATFPDGRSAAIRVTVDTDTDVVGFEFVEEHPDVGHTDAPGSAG [r5_33_TrMRF]”, the “folding stability dG unfold” value is 1.12 ± 0.057 kcal/mol in data set [1], 1.74 ± 0.1 kcal/mol in data set [2] and 1.47 ± 0.11 kcal/mol in data set [3].
Consider “SAGKMVKVEIVIDVPPEEITEEELKAILEEEAEEVEITFDEETGKITITVTVSEEEAEKLREALKELGASAG [r5_378_TrROS_Hall]”, for which the “folding stability dG unfold” value was determined as 1.04 ± 0.13 kcal/mol in data set [1], 1.02 ± 0.13 kcal/mol in data set [2] and 1.3 ± 0.26 kcal/mol in data set [3].
Regarding “SAGKPESFSIEAPPIAPPEFPLGGSYRTLPNGEVLVLITLPDGTVLVLPSLDELRELRESGLPIDISPSSAG [r5_42_TrMRF]”, the “folding stability dG unfold” value in data set [1] was determined as 1.17 ± 0.045 kcal/mol; in data set [2], 0.959 ± 0.017 kcal/mol; in data set [3], 1.07 ± 0.045 kcal/mol.
Turning to “SAGKPGKTIKVTVPIPDSVKNAKIIVEYPNGKSKTITVPAGKNVTITFKVPGSSSVKVRVVLDDGSVIGSAG [r5_664_TrMRF]”, the “folding stability dG unfold” value in data set [1] worked out at 2.45 ± 0.046 kcal/mol; in data set [2], 2.9 ± 0.075 kcal/mol; in data set [3], 2.69 ± 0.054 kcal/mol.
“SAGKPKVKVKKITVTITYDPETGTITIEATIEIDGKTIKLTITITLPEELRNLKPGDTITIEITIIIEPSAG [r5_714_TrROS_Hall]”: the “folding stability dG unfold” value is 2.86 ± 0.13 kcal/mol in data set [1], 3.4 ± 0.17 kcal/mol in data set [2] and 3.15 ± 0.12 kcal/mol in data set [3].
On to “SAGKPLPKLKTYEVDVPDNKKVKIEVYKLPDGTAIVKIKDDNGNESEIEIPLSLLENLSVEDLVKLAKSAGG [r19_47_TrMRF]”, for which the “folding stability dG unfold” value was 2.28 ± 0.047 kcal/mol in data set [1], 0.77 ± 0.028 kcal/mol in data set [2] and 1.9 ± 0.095 kcal/mol in data set [3].
Turning to “SAGKPRPVEIDFPMPPGFPNMPPEEMANMIARELDENGLKIEPKNMNPGEPYVRYTVEVNGKPILEITFSAG [r5_80_TrROS]”, the “folding stability dG unfold” value in data set [1] is 1.51 ± 0.12 kcal/mol; in data set [2] it was 0.762 ± 0.081 kcal/mol; in data set [3] it was 1.14 ± 0.12 kcal/mol.
As for “SAGKQEIKVEAVFPGDTLEEFMEFIREFLAEQGLKIEPTEFEIDKVQPMPGGPMIRVTAWIKIEPPDDSAGG [r19_325_TrROS]”, the “folding stability dG unfold” value in data set [1] was 2.95 ± 0.053 kcal/mol; in data set [2], 2.31 ± 0.11 kcal/mol; in data set [3], 2.8 ± 0.22 kcal/mol.
Consider “SAGKTITVTSTHPDGRTATVTYTTLPDGSFKITSFTWEPWPDGTVTAKITTPDGTVITVNSIDDILKALSAG [r5_618_TrMRF]”, for which the “folding stability dG unfold” value in data set [1] was determined as 3.52 ± 0.05 kcal/mol; in data set [2], 2.4 ± 0.1 kcal/mol; in data set [3], 3.27 ± 0.099 kcal/mol.
Regarding “SAGKTVEIKVTLKITRYEKLPDGSVKKEVKTLTITVTMSEEELNKEEIKNALKELLEKLPPDVKKIEITSAG [r5_849_TrROS_Hall]”, the “folding stability dG unfold” value came to 4.63 ± 0.083 kcal/mol in data set [1], 2.8 ± 0.17 kcal/mol in data set [2] and 4.34 ± 0.22 kcal/mol in data set [3].
As for “SAGKVEIVVTYPDGSKAVIDSDNPLVFTITDPDGNSSTISGTGFDEALLKIVELLKEKTGKPVEKVEIKSAG [r5_119_TrMRF]”, the results for the “folding stability dG unfold” value in data set [1], in data set [2] and in data set [3] were 2.168 ± 0.021 kcal/mol, 0.377 ± 0.098 kcal/mol and 1.76 ± 0.14 kcal/mol, respectively.
In the same order, the values of “SAGKVIVIDAEEMTEEELKEILKKTKPGEKILIIAKSKEVAEKLKELGFEVEEVEKVPLTEEELKKLKKSAG [r5_354_TrROS_Hall]” are 1.27 ± 0.028 kcal/mol, 0.835 ± 0.063 kcal/mol and 1.08 ± 0.14 kcal/mol.
In the same order, the values of “SAGKWKVRTIPLPGFSITIWYDPDEGRIRISITMWMWKPKKDPENGKPKQEHRMMTMEAPIPIPPGAPISAG [r5_195_TrROS]” are 2.51 ± 0.29 kcal/mol, 1.86 ± 0.074 kcal/mol and 2.3 ± 0.27 kcal/mol.
The like results for “SAGKWVTIEIPIYIPGNPSQLKDLVEEIANILAAHGMKINVDVEVYPVDDYYIVKITVTVRMPPGMPIISAG [r5_217_TrROS]” were, in that order, 3.23 ± 0.1 kcal/mol, 3.75 ± 0.17 kcal/mol and 3.41 ± 0.19 kcal/mol.
In the case of “SAGKYKIKNVQFSNNSITIEIYDDGKPKAEIPIPPNFPNMKVDAEIDEDGSIKIKFRFNGQPQEIEIPPSAG [r5_533_TrROS]”, the “folding stability dG unfold” value was 1.54 ± 0.17 kcal/mol in data set [1], 0.819 ± 0.057 kcal/mol in data set [2] and 1.25 ± 0.31 kcal/mol in data set [3].
In the same order, the values of “SAGLDIKKIEFDPNGYLRIEVVYDKNISIKEIIEEIKKLTGATVEKVEVKPTKNGVKAIFILKIDKNLKSAG [r5_774_TrMRF]” are 3.052 ± 0.021 kcal/mol, 1.12 ± 0.042 kcal/mol and 2.6 ± 0.11 kcal/mol.

For the origin of these results see the supplement of paper PMC12764529.
